This note sets out measurements from US5858678.

Bounds are passed on as bounds.

Test [1] has as its target Bcl-2 deletion mutant #106-5 (lacks residues 106 to 115) bait in pMA424 (yeast; human). Put plainly: yeast two-hybrid, ONPG beta-galactosidase assay.
The target in test [2] is 19K mutant 50-1 (amino acids 50-51) bait (GAL4(1-147)-19 kD fusion) (yeast; adenovirus) (UniProt P04386). The test is described as follows: yeast two-hybrid, ONPG beta-galactosidase assay.
The target of test [3] is 19K mutant 90-6 (amino acids 90-96) bait (GAL4(1-147)-19 kD fusion) (yeast; adenovirus) (UniProt P04386). The test is described as follows: yeast two-hybrid, ONPG beta-galactosidase assay.
Test [4] addresses 19K mutant 29-0 bait (GAL4(1-147)-19 kD fusion) (yeast; adenovirus) (UniProt P04386). Put plainly: yeast two-hybrid, ONPG beta-galactosidase assay.
Test [5] deals with 19K mutant 75-6 (substitution for residues 75-76) bait (GAL4(1-147)-19 kD fusion) (yeast; adenovirus) (UniProt P04386). Put plainly: yeast two-hybrid, ONPG beta-galactosidase assay.
The target of test [6] is 19K mutant 14-5 bait (GAL4(1-147)-19 kD fusion) (yeast; adenovirus) (UniProt P04386). Put plainly: yeast two-hybrid, ONPG beta-galactosidase assay.
For test [7], the target named is 19K mutant 146-E bait (GAL4(1-147)-19 kD fusion) (yeast; adenovirus) (UniProt P04386). Put plainly: yeast two-hybrid, ONPG beta-galactosidase assay.
Test [8] deals with Bcl-2 deletion mutant #42-8 (lacks residues 42 to 48) bait in pMA424 (yeast; human). Put plainly: yeast two-hybrid, ONPG beta-galactosidase assay.
In test [9] the target is 19K mutant 123-4 (substitutions for residues 123-124) bait (GAL4(1-147)-19 kD fusion) (yeast; adenovirus) (UniProt P04386). Put plainly: yeast two-hybrid, ONPG beta-galactosidase assay.
Test [10] addresses Bcl-2 deletion mutant #80-6 (lacks residues 80 to 86) bait in pMA424 (yeast; human). Put plainly: yeast two-hybrid, ONPG beta-galactosidase assay.
For test [11], the target named is GAL4(1-147)-19K fusion protein (adenovirus E1B 19 kD protein bait, wild type) (yeast; adenovirus) (UniProt P04386). The test is described as follows: yeast two-hybrid, ONPG beta-galactosidase assay.
Test [12] has as its target human Bcl-2 bait (pMA424-based GAL4 DNA-binding domain fusion, residues 1-239 of Bcl2), wild type (yeast; human). Put plainly: yeast two-hybrid, ONPG beta-galactosidase assay.
Test [13] concerns the target GAL4(1-147)-19K fusion protein (adenovirus E1B 19 kD protein bait, wild type) (yeast; adenovirus) (UniProt P04386). The test is described as follows: yeast two-hybrid, ONPG beta-galactosidase assay, relative to the 19K bait.
In test [14] the target is human Bcl-2 bait (pMA424-based GAL4 DNA-binding domain fusion, residues 1-239 of Bcl2), wild type (yeast; human). Described as above.

Sequence of Nip3 (19K-interacting protein 3), protein coded by cDNA clone 91, tagged with the GAL4 activation domain (chain): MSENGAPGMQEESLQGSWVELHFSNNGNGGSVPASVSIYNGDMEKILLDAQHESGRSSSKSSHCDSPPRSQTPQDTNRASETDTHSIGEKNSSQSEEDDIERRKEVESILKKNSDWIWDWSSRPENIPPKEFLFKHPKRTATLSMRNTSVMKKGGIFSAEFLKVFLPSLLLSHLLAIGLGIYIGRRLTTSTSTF
Sequence of Nip1 (19K-interacting protein 1), protein coded by cDNA clone 22, tagged with the GAL4 activation domain (chain): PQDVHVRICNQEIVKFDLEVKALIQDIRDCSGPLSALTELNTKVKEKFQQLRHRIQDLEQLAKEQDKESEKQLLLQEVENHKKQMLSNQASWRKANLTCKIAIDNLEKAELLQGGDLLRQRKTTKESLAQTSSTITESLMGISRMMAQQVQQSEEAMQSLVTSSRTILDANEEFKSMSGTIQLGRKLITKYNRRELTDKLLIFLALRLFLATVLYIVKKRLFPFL
Sequence of Nip2 (19K-interacting protein 2), protein coded by cDNA clone 44, tagged with the GAL4 activation domain (chain): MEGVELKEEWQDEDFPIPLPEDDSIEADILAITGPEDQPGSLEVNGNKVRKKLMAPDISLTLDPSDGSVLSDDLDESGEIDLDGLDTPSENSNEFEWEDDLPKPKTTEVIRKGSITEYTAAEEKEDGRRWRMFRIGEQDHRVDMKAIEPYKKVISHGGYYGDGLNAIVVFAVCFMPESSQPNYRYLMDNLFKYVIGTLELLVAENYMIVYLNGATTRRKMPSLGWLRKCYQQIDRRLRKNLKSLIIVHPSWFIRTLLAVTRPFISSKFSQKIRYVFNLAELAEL

Consider “Nip2 (19K-interacting protein 2), protein coded by cDNA clone 44, tagged with the GAL4 activation domain”, for which the relative level of lacZ expression (ONPG) (relative level) in test [1] is 0.06; in test [2], 0.09; in test [3], 0.04; in test [4], 0.32; in [5], 1.6; in [6], 0.55. The relative level of lacZ expression (ONPG) (relative level) in test [7] stood at 0.98; in test [8], 0.09; in test [9], 0.24; in test [10] it was 0.8; in [11], 1; in [12], 1. Besides, the relative level of lacZ expression (ONPG) (relative level) in test [13] is 1; in test [14] it was 0.7.

Consider “Nip1 (19K-interacting protein 1), protein coded by cDNA clone 22, tagged with the GAL4 activation domain”, for which the relative level of lacZ expression (ONPG) (relative level) in test [1] is 0.01; in [2], less than 0.01; in [3], less than 0.01; in [4], 0.33; in [5], 1.72; in test [6], 0.61. Besides, the relative level of lacZ expression (ONPG) (relative level) was 0.87 in test [7]; 0.16 in test [8]; 0.05 in [9]; 1.21 in test [10]; 1 in test [11]; 1 in [12]. Further, the results for the relative level of lacZ expression (ONPG) (relative level) in test [13] and in test [14] were 1 and 1.8, respectively.

With “Nip3 (19K-interacting protein 3), protein coded by cDNA clone 91, tagged with the GAL4 activation domain”, the relative level of lacZ expression (ONPG) (relative level) in [1] was 0.11; in test [2], 0.01; in [3], 0.01; in test [4], 0.19; in test [5], 0.22; in test [6], 0.16. The relative level of lacZ expression (ONPG) (relative level) in [7] is 0.28; in test [8] it was 0.19; in test [9], 0.1; in test [10], 2.87; in [11], 1; in [12], 1. Further, the relative level of lacZ expression (ONPG) (relative level) in test [13] was found to be 1; in [14], 1.5.
